The target in the assay is T1, TDP-43 1-206 amino acid fragment, containing the RRM1 domain (Homo sapiens (Human), UniProt Q13148 1-206).
T1 construct: Spotted on membranes for the dot blot; also called amino acids 1-206 of TDP-43
In words: dot blot, scFv-conditioned medium, anti-myc HRP. As to the method: Example 6: Anti-TDP-43 Antibodies Having an scFv Format Detect TDP-43 RRM1 Domain Different concentrations of TDP-43 1-206 amino acid fragment, containing the RRM1 domain were loaded onto membranes by dot blot. Membranes were incubated overnight with media from Hek293 cells that had been transfected with pScFv9 expression plasmid containing the nucleic acids encoding E6_VH1Vk9 and E6_VH7Vk9. The myc signal was detected using anti-myc HRP antibody incubation.

Residue numbers refer to the chain shown, from its start.

The results in this text go back to US10202443 (UNIVERSIT LAVAL, dated 2019).

T1 sequence (Q13148 1-206): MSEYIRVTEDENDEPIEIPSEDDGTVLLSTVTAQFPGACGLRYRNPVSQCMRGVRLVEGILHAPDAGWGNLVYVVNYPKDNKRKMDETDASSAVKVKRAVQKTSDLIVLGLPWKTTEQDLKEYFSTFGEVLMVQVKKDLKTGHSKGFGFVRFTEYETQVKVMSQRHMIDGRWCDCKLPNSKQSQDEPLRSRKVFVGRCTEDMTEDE

B1: E6_VH1Vκ9 scFv antibody (scFv)
scFv: LQESGGGLVQPGGSMKLSCVASGFTSSNYWLNWVRQSPERGLEWVAEIRLKSNNYATNYAESVKGRFTISRDDSKSSVYLQVNNLRAEDTGIYYCTRSTARATPYYFDYWGQGTTVTVSSGGGGSGGGGSGGGGSDIELTQSPSSLAVSAGEKVTMSCKSSQSLLNSRARKNFLTWYQQKPGQSPKLLIYWASTRESGVPDRFTGSGSGTDFTLTISSVQAEDLAVYYCKQSYNLYTFGGGTKLEEQKLISEEDLN
notes: The signal is left out here; Used as conditioned medium or inside transfected cells; also called E6_VH1Vk9; VH1Vk9
In the case of B1, the binding result is “binds”.

B2: E6_VH7Vκ9 scFv antibody (scFv)
scFv: B1 scFv with E3Q
notes: The signal is left out here; It differs from E6_VH1Vκ9 by one residue (Q instead of E); also called E6_VH7Vk9; VH7Vk9
Consider B2, for which the binding result is “binds”.
